Experimental findings from patent US6288037A, “Substrates and inhibitors for cysteine protease ICH-1” (BASF Aktiengesellschaft, priority 1996, dated 2001) are described below.

Substrate in this series: CC(=O)N[C@H](C(=O)N[C@@H](CC(=O)O)C(=O)N[C@H](C(=O)N[C@@H](C)C(=O)N[C@@H](CC(=O)O)C(=O)Nc1ccc([N+](=O)[O-])cc1)C(C)C)C(C)C
Put plainly: In vitro proteolysis assay with chromogenic para-nitroaniline-labeled peptide substrate (absorbance 405 nm). Type of series: biochemical, Human. Particulars: other: pNA substrate cleaved by N-His Ich-1, 30° C. The text has this:
To identify peptide substrates for Ich-1, candidate peptides were used in in vitro proteolysis assays with recombinant Ich-1 protein. Human Ich-1 enzyme (the nucleotide and amino acid sequences for which are disclosed in Wang, L., et al. (1994) Cell 78:739-750) was expressed recombinantly with an N-terminal polyhistidine tag by methods described in Kamens, J., et al. (1995) J. Biol. Chem. 270:15250-15256. The resulting enzyme, called N-His Ich-1, contains Ich-1 amino acid residues 167-435, with an initiator and polyhistidine tag fused to the amino terminus. […]
A peptidic aldehyde inhibitor of Ich-1 was designed based upon the optimal peptide substrate (Peptide 43) described in Example 3. […] The ability of this peptidic aldehyde inhibitor to inhibit N-His Ich-1 activity was determined in in vitro proteolysis assays using a chromogenic para-nitroaniline-labeled peptide substrate. […]
To perform the proteolysis assay, N-His Ich-1 was preincubated for 30 minutes at 30° C. in 160 μl of a reaction buffer containing 100 mM sodium acetate (pH 6.2), 20% (v/v) glycerol, 5 mM DTT, 0.5 mM EDTA, […]. […] The incubation of N-His Ich-1 with the peptide substrate at 30° C. was continued, and the catalytic hydrolysis of peptide substrate was monitored by the change in absorbance of the samples at 405 nm due to release of pNA as a function of time. […]

B1: N-His Ich-1 (Homo sapiens) (protein)
chain 1: YQTHFQLAYRLQSRPRGLALVLSNVHFTGEKELEFRSGGDVDHSTLVTLFKLLGYDVHVLCDQTAQEMQEKLQNFAQLPAHRVTDSCIVALLSHGVEGAIYGVDGKLLQLQEVFQLFDNANCPSLQNKPKMFFIQACRGDETDRGVDQQD
chain 2: GKNHAGSPGCEESDAGKEKLPKMRLPTRSDMICGYACLKGTAAMRNTKRGSWYIEALAQVFSERACDMHVADMLVKVNALIKDREGYAPGTEFHRCKEMSEYCSTLCRHLYLFPGHPPT
notes: contains Ich-1 amino acid residues 167-435, with an initiator and polyhistidine tag fused to the amino terminus; initiator (Met) + polyhistidine tag (N); made in house
As to B1, the Km stood at 42 µM.

Broadly, the Km is the concentration of substrate that gives half-maximal velocity.
